Where a chain is given by its changes, count along the chain named. Numbers in names are those of the source. Like-named read-outs stand apart in the source and are kept apart here. Values belong to the binder of their own block, whether it stands above or below them.
Tests used:
human CD25 [1] = molecular target: T1, human CD25 (human, UniProt P01589 22-272); assay: flow cytometry, SU-DHL-1 cells
T1 construct: whole, on cells; Always presented on cells; also called huCD25; IL2Rα
T1 sequence (looked up): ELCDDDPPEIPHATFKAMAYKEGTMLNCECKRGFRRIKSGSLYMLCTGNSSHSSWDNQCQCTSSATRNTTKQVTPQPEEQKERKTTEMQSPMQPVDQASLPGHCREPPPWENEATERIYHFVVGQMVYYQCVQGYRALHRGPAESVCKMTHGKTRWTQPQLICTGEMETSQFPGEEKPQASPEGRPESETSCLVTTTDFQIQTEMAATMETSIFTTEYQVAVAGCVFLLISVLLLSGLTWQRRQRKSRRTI
Procedure: (§1) Briefly, the CHOK1-huCD25 cells and HEK293-cynoCD25 cells were digested, the SU-DHL-1 cells, Karpas299 cells, Treg cells and Teff cells were collected, and the cells were resuspended in PBS containing 2% BSA. The cells were adjusted to a cell density of 1×10⁶ cells/mL, respectively. […] The cells were incubated at 4° C. for 1 hour in the dark. After the incubation, the cells were rinsed twice by adding pre-chilled PBS containing 2% BSA at 100 μL/well, and centrifuged at 500 g at 4° C. for 5 minutes, and the supernatant was discarded. […] The cells were washed twice by adding pre-chilled PBS containing 2% BSA at 100 μL/well, and centrifuged at 500 g at 4° C. for 5 minutes, and the supernatant was discarded. Finally, the cells were resuspended in pre-chilled PBS containing 2% BSA at 200 μL/well, and the fluorescence signal values were read using a BD CantoII flow cytometer.

human CD25 [2] = molecular target: T1, human CD25; assay: flow cytometry, Karpas299 cells
Procedure: (§2) This example was intended to study the in-vitro binding activity of H2L2 monoclonal antibodies against human CD25 to human/cynomolgus monkey CD25. […] Briefly, the CHOK1-huCD25 cells and HEK293-cynoCD25 cells were digested, the SU-DHL-1 cells, Karpas299 cells, Treg cells and Teff cells were collected, and the cells were resuspended in PBS containing 2% BSA. The cells were adjusted to a cell density of 1×10⁶ cells/mL, respectively. […] The cells were incubated at 4° C. for 1 hour in the dark. After the incubation, the cells were rinsed twice by adding pre-chilled PBS containing 2% BSA at 100 μL/well, and centrifuged at 500 g at 4° C. for 5 minutes, and the supernatant was discarded. […] The cells were washed twice by adding pre-chilled PBS containing 2% BSA at 100 μL/well, and centrifuged at 500 g at 4° C. for 5 minutes, and the supernatant was discarded. Finally, the cells were resuspended in pre-chilled PBS containing 2% BSA at 200 μL/well, and the fluorescence signal values were read using a BD CantoII flow cytometer.

human CD25 [3] = molecular target: T1, human CD25; assay: flow cytometry, SU-DHL-1 cells; remark: listed apart in the source
Procedure: as §1

human CD25 [4] = molecular target: T1, human CD25; assay: flow cytometry, Karpas299 cells; remark: listed apart in the source
Procedure: as §2

human CD25 [5] = molecular target: T1, human CD25; assay: flow cytometry, Karpas299 cells; remark: listed apart in the source
cynomolgus monkey CD25 [6] = molecular target: T2, cynomolgus monkey CD25 (cynomolgus monkey, UniProt H6WS54 22-272); assay: flow cytometry, HEK293-cynoCD25 cells
T2 construct: whole, on cells; also called cynoCD25
T2 sequence: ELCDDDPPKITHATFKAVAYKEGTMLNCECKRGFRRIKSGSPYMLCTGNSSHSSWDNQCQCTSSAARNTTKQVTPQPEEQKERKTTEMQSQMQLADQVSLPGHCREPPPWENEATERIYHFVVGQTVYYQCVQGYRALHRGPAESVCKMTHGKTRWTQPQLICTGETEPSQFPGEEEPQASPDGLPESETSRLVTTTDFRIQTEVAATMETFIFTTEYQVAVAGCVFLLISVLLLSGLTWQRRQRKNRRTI
Procedure: as §1

human CD25 [7] = molecular target: T1, human CD25; assay: flow cytometry, CHOK1-huCD25 cells
Procedure: as §1

human CD25 [8] = molecular target: T1, human CD25; assay: flow cytometry, Karpas299 cells; remark: listed apart in the source
Procedure: as §2

cynomolgus monkey CD25 [9] = molecular target: T2, cynomolgus monkey CD25; assay: flow cytometry, HEK293-cynoCD25 cells; remark: listed apart in the source
Procedure: as §2

human CD25 [10] = molecular target: T1, human CD25; assay: flow cytometry, SU-DHL-1 cells; remark: listed apart in the source
Procedure: as §1

human CD25 [11] = molecular target: T1, human CD25; assay: flow cytometry, Karpas299 cells; remark: listed apart in the source
human CD25 [12] = molecular target: T1, human CD25; assay: flow cytometry, Karpas299 cells; remark: listed apart in the source
Procedure: as §1

human CD25 [13] = molecular target: T1, human CD25; assay: flow cytometry, Karpas299 cells; remark: listed apart in the source
Procedure: as §1

cynomolgus monkey CD25 [14] = molecular target: T2, cynomolgus monkey CD25; assay: flow cytometry, HEK293-cynoCD25 cells; remark: listed apart in the source
Procedure: as §1

human CD25 [15] = molecular target: T1, human CD25; assay: flow cytometry, SU-DHL-1 cells; remark: listed apart in the source
Procedure: as §1

human CD25 [16] = molecular target: T1, human CD25; assay: flow cytometry, SU-DHL-1 cells; remark: listed apart in the source
Procedure: as §1

human CD25 [17] = molecular target: T1, human CD25; assay: flow cytometry, SU-DHL-1 cells; remark: listed apart in the source
Procedure: as §1

human CD25 [18] = molecular target: T1, human CD25; assay: flow cytometry, CHOK1-huCD25 cells; remark: listed apart in the source
Procedure: as §2

human CD25 [19] = molecular target: T1, human CD25; assay: flow cytometry, SU-DHL-1 cells; remark: listed apart in the source
Procedure: as §1

human CD25 [20] = molecular target: T1, human CD25; assay: flow cytometry, SU-DHL-1 cells; remark: listed apart in the source
Procedure: as §1

cynomolgus monkey CD25 [21] = molecular target: T2, cynomolgus monkey CD25; assay: flow cytometry, HEK293-cynoCD25 cells; remark: listed apart in the source
Procedure: as §2

cynomolgus monkey CD25 [22] = molecular target: T2, cynomolgus monkey CD25; assay: flow cytometry, HEK293-cynoCD25 cells; remark: listed apart in the source
Procedure: as §1

human CD25 [23] = molecular target: T1, human CD25; assay: flow cytometry, Karpas299 cells; remark: listed apart in the source
Procedure: as §2

cynomolgus monkey CD25 [24] = molecular target: T2, cynomolgus monkey CD25; assay: flow cytometry, HEK293-cynoCD25 cells; remark: listed apart in the source
Procedure: as §1

human CD25 [25] = molecular target: T1, human CD25; assay: flow cytometry, SU-DHL-1 cells; remark: listed apart in the source
Procedure: as §1

human CD25 [26] = molecular target: T1, human CD25; assay: flow cytometry, Karpas299 cells; remark: listed apart in the source

EC50 (cynomolgus monkey CD25 [9]): 2.25 nM
EC50 (human CD25 [17]): 1.55 nM
EC50 (human CD25 [23]): 8 nM
B4: PR008197 (antibody, human IgG1, kappa, V domains shown)
VH: QVQLQGSGPGLVKPSGTLSLTCAVSPGSISSSNWWNWVRQPPGKGLEWIGEIYHRGSTNYNPSLKSRVTISVDKSKNQFSLKLSSVTAADTAVYYCTHYYYDSSGYYYGYWGQGTLVTVSS
VL: DIVMTQSPLSLPVTPGEPASISCRSSQSLLHRDVYNYVDWYLQKPGQSPQLLIYLGSNRASGVPDRFSGSGSGTDFTLKISRVEAEDVGVYYCLQALQTPLTFGGGTKVEIKR
notes: PTM variant of PR005436 (VH:D26P); human IgG1

EC50 (human CD25 [4]): 1.73 nM
EC50 (human CD25 [10]): 1.95 nM
B5: PR006110 (antibody, V domains shown)
VH: QVQLQESGPGLVKPSGTLSLTCAVSGGSISSSNYWSWVRQPPGKGLEWIGEIYHSGSTNYNPSLKSRVTISLDKSKNQFSLKLSSVTAADTAVYYCARDRNYGSGNYPHYYHYYGMDVWGQGTTVTVSS
VL: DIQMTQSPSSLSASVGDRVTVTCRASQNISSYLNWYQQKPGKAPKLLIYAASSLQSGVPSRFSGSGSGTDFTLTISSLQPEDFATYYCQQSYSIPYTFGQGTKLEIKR
notes: Fully human recombinant IgG1, kappa; also called 307B8G6

More lines, now with the values behind:

B1: RG6292 (antibody, human IgG1, kappa, V domains shown)
VH: QVQLVQSGAEVKKPGSSVKVSCKASGGTFSSLAISWVRQAPGQGLEWMGGIIPIFGTANYAQKFQGRVTITADESTSTAYMELSSLRSEDTAVYYCARGGSVSGTLVDFDIWGQGTMVTVSS
VL: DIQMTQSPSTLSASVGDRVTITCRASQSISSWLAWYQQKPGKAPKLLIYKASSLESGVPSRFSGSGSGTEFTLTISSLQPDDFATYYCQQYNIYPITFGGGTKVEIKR
notes: also called PR004639; PR004639AF
EC50 (human CD25 [1]): 1.4 nM
Maximum MFI (human CD25 [1]): 30700 MFI
EC50 (human CD25 [2]): 5 nM
EC50 (human CD25 [3]): 1.35 nM
EC50 (human CD25 [4]): 11.8 nM
EC50 (human CD25 [5]): 5 nM
Maximum MFI (human CD25 [5]): 10100 MFI
EC50 (cynomolgus monkey CD25 [6]): 80.8 nM
Maximum MFI (cynomolgus monkey CD25 [6]): 8590 MFI
EC50 (human CD25 [7]): 40 nM
Maximum MFI (human CD25 [7]): 2660 MFI
EC50 (human CD25 [8]): 2.22 nM
EC50 (cynomolgus monkey CD25 [9]): 80.8 nM
EC50 (human CD25 [10]): 1.29 nM
EC50 (human CD25 [11]): 30 nM
Maximum MFI (human CD25 [11]): 11800 MFI
EC50 (human CD25 [12]): 14.3 nM
Maximum MFI (human CD25 [12]): 20900 MFI
EC50 (human CD25 [13]): 30 nM
Maximum MFI (human CD25 [13]): 11800 MFI
EC50 (cynomolgus monkey CD25 [14]): 20.9 nM
Maximum MFI (cynomolgus monkey CD25 [14]): 89700 MFI
EC50 (human CD25 [15]): 3.87 nM
Maximum MFI (human CD25 [15]): 32900 MFI
EC50 (human CD25 [16]): 1.28 nM
Maximum MFI (human CD25 [16]): 29700 MFI
EC50 (human CD25 [17]): 0.95 nM
EC50 (human CD25 [18]): 45.8 nM
EC50 (human CD25 [19]): 1.28 nM
EC50 (human CD25 [20]): 3.87 nM
Maximum MFI (human CD25 [20]): 32900 MFI
EC50 (cynomolgus monkey CD25 [21]): 6.75 nM
EC50 (cynomolgus monkey CD25 [22]): 4.33 nM
Maximum MFI (cynomolgus monkey CD25 [22]): 125000 MFI
EC50 (human CD25 [23]): 3.41 nM
EC50 (cynomolgus monkey CD25 [24]): 40 nM
Maximum MFI (cynomolgus monkey CD25 [24]): 2660 MFI
EC50 (human CD25 [25]): 1.57 nM
Maximum MFI (human CD25 [25]): 28000 MFI
EC50 (human CD25 [26]): 5 nM
Maximum MFI (human CD25 [26]): 9560 MFI

B2: PR008015 (antibody, human IgG1, kappa, V domains shown)
VH: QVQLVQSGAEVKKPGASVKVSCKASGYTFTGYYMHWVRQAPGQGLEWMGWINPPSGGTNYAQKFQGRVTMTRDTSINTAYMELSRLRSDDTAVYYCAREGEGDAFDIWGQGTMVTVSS
VL: DFQMTQSPSTLSASVGDRVTITCRASQSISSWLAWYQQKPGKAPKLLIYEASSLKSGVPSRFSGSESGTEFTLTISSLQPDDFATYYCHQYMSYSTFGQGTKVEIKR
notes: PTM variant of PR006931 (VH:N54P, S60Y); human IgG1
EC50 (human CD25 [2]): 20 nM
EC50 (human CD25 [19]): 0.85 nM

B3: PR005497 (antibody, human IgG1, kappa, V domains shown)
VH: QVQLQQSGPGLVKPSQTLSLTCAISGDSVSNNNAAWNWIRQSPSRGLEWLGRTHYRSDRSKWYNDYAVSVKSRITINSDTFKNQFSLQLNPVTPEDTAVYYCARDWDHDAFDIWGQGTMVTVSS
VL: B2 VL with F2I, S31G, E50K, K55E, S56T, E66G, H89L, M92N, S93G, Q99G
notes: Fully human recombinant IgG1, kappa; also called 245E10F1
EC50 (human CD25 [3]): 2.4 nM
EC50 (human CD25 [8]): 2.81 nM
EC50 (human CD25 [18]): 2.73 nM
EC50 (cynomolgus monkey CD25 [21]): 6.4 nM

— patent publication US20250154268A1 (NONA BIOSCIENCES SUZHOU, published 2025)
